Consider 41 sequences from the nanobody polyreactivity screen of Harvey et al. (2022).

This data set can be described thus: yeast display, Sf9 membrane polyspecificity reagent, FACS + sequencing; frameworks hold sequencing errors. Put shortly:
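Using colony PCR, genes from sorted yeast display clones were amplified, then sequenced on MiSeq at 2 × 250 and filtered by CDR length. The clones had been stained with 10% biotinylated, detergent-solubilized Sf9 membrane reagent for 1 hour at 4 °C and sorted by FACS into low and high (top ~1%) gates on anti-HA and streptavidin fluorescence. Polyreactivity labels come from the gate of origin.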
For the sequence “QVQLVESGGGLVQAGGSLRLSCAASGRIFDSYTMGWYRQAPGKERELVAAISRGGGSTYYADSVKGRFTISRDNAKNTVYLQMNSLKPEDTAVYYCAASSYLNSRFKFDYWGQGTQVTVSS”, the “polyreactivity (PSR sort gate)” value was “low polyreactivity”.
With “QDQLGESGGGLVQAGGSLRLSCAASGRTFNGYAMGWYRQAPGKVREFVAAITSNGARTYYADSVKGRFTISRDNAMNSVYLQMNSLKPEDTAVFYCAKRFARRSQRYDYWGQGTQVTVSS”, the “polyreactivity (PSR sort gate)” value was “high polyreactivity”.
“QVQLVESGGGLVQAGGSLRLSCAASGITFTSYAMGWYRQAPGKERELVAAISWSGDRTYYADSVKGRFTISRDNAKNTVYLQMNSLKPEDTAVYYCAAEWVSPWTGPGFDYWGQGTQVTVSS”: the “polyreactivity (PSR sort gate)” value is recorded as “high polyreactivity”.
For “QVQLVESGGGLVQAGGSLRLSCAASGRIFKYYAKGWYRQAPGKERELVAAITSSGVSTYADSVKGRFTISRDNAKNTVYLQMNSLKPEDTAVYYCAADYVREGLGYDYWGQGTQVTVSS”, the “polyreactivity (PSR sort gate)” value is listed as “low polyreactivity”.
On to “QVQLVESGGGLVQAGGSLRLSCAASGRIFYGYVMGWYRQAPGKERELVAAITWSGSRTYYADSVKGRFTISRDNAKNTVYLQMNSLKPEDTAVYYCAARIPSDGYYYWGQGTQVTVSS”, for which the “polyreactivity (PSR sort gate)” value was “high polyreactivity”.
The entry for “QVQLVESGGGLVQAGGSLRLSCAASGRIFHGYVMGWYRQAPGKERELVAAINQSGTSTYYADSVKGRFTISRDNAKNTVYLQMNSLKPEDTAVYYCAKDWAYRRHWVGFYYWGQGTQVTVSS” is “low polyreactivity”; for “QVQLVESGGGLVQAGGRLRLRCAASGSIFEPNAMGWYRQSPWKERELVATIRDSGGRTYYADSVKGRFTISRDNAKNTVYLQMNSLKPEDTAVYYCAARRYLGWFSYRLYDYWGQGTQVTVSS” it is “high polyreactivity”; for “QVQLVESGGGLVQAGGSLRLSCAASGRIFWYYNMGRYRQAPGKERELVASINSDTGTYYADSVKGRFTISRDNAKNTVYLQMNSLKPEDTAVYYCTRDSESDANTFTTSGIDEPYDYWGQGTQVTVSS” it is “low polyreactivity”.
Turning to “QVQLVESGGGLVQAGGSLRLSCAASGFTFKRYAMGWYRQAPGNERELVAAISYSGGSTYYADSVKWRFTISRDNAKNTVYLQMKSLKPEDTAVYYCAAPRGHGKYYSWGQGTQVTVSS”, the “polyreactivity (PSR sort gate)” value is reported as “high polyreactivity”.
In the case of “QVQLVESGGGLVQAGGSLRLSCAASGSIFYRYTMGWSRQAPGKERELVAAITYSGGSTYYADSVKGRFTISRDNAKNTVYLQMNSLIPEDTAVYYCNKDYYSGQSGYNYWGQGTQVTVSS”, the “polyreactivity (PSR sort gate)” value is on record as “low polyreactivity”.
With “QLQHVESWGGLVQAGGSLRLSCAASGRTFRANDKRSYRQAPGKQSELVAAISQSGGSRYYADSVKGRFTISRDNAKNTVYLQLNSLKPEDTAVYYCNALGRISNHTLYDYWGQGTQVTVSS”, the “polyreactivity (PSR sort gate)” value was “low polyreactivity”.
With “QEQLQESGVGQVQAGGSLLLSCAASGNIIRYYYMGWYRQAPGKERELVAAITYGTSTNYADSVKGRFTISRDNAKNSVYLQINSLKPEDTAVYYCAATAYWFYAKYYYWGQGTQVTVSS”, the “polyreactivity (PSR sort gate)” value is given as “high polyreactivity”.
As to “QVQLVESGGGLVQAGGSLRLSCAASGSTFEYYGMGWYRQAPGKERELVATITSGGSTNYADSVKGRFTISRDNAKNTVYLQMNSLKPEDTAVYYCAVDISNSLGGGFGYDYWGQGTQVTVSS”, the “polyreactivity (PSR sort gate)” value is recorded as “low polyreactivity”.
Regarding “QVQLVESGGVLVQAGGSLRLSCAASGRTFYSYAMGWYRQAPGNERELVAAITSSGGSTYYADSVKGRFTISRDNAKNTVYLQMNRLKPEDTAVYYCAAPRGRHFDYWGQGTQVTVSS”, the “polyreactivity (PSR sort gate)” value is “high polyreactivity”.
The entry for “QVQLVESGGGLVQAGGSLRLSCADSGSIFEVYAMGWYRQAAGKERELVAAINYTGGSTYYADSVKGRFTISRDNAKITVYLQMNSLKPEDTAVYYCARDTSGNGTRYDYWGQGTQVTVSS” is “low polyreactivity”.
The entry for “QVQLVESGGGLVQAGGSLRLSCAASGSTFSEYVMGWYRQAPGKERELVAAIRSNGGSTYYADSVKGRFTISRDNAKNTVYLQMNSLKPEDTAVYYCNRVYSRRTYNSPLYDYWGQGTQVTVSS” is “high polyreactivity”; for “QVQLVESGGGLVQAGGSLRLSCAASGRIFYPYAMGWYRQAPGKEREFVATITASGGSTYYADSVKGRVTISRDNAKNTVYFQMNSLKPEDTAVYYCAADDPGYYQVEYWGQGTQVTVSS” it is “high polyreactivity”.
As to “QVQLVESGGGLVQAGGSLRLSCAASGNNFSRYSMGCSRPAPGKERELVASISRGGRTNYADSVKGRFTISLDNAKNTVYLQMNSLNPEDTAVYYCALGGNGYWHQSGPYPYNYWGQGTQVTVSS”, the “polyreactivity (PSR sort gate)” value was “high polyreactivity”.
Consider “QVQLVESGGGLVQAGGSLRLSCAASGRTFRYNAMGWYRQAPGKERELVASITYRGGSTYYADSVKGRFTISRDNAKNTVYLQMNSLKPEDTGVYYCATSVYSRPRKPRYYYWGQGTQVTVSS”, for which the “polyreactivity (PSR sort gate)” value was “high polyreactivity”.
The entry for “QVHHVESAGRLVQAGGILRLICPASGFTFGHYVMGWYRQEPGKERELLAAITLSGGGTYYADSVKGRFTISRDNAKNTGYLQMNSLKPQDTAVYYCAAVGGDHAKITYSRYKVDYWGQGTQVTVSS” is “low polyreactivity”.
Take “QVQLEESGVGLVQAGGSLRLSCAASGSIIHYNAMGWYRKAPGKERELVASISSGGRTYYADSVKGRFTISRDNAKNTVYLQMNSLNQEDTAVYYCAAEYYQTTYVWWTYDYSWGLGTQVTVSS”: the “polyreactivity (PSR sort gate)” value was “low polyreactivity”.
As to “QVQLVESGGGLVQAGGSLRLSCAASGSIFGYYTMGWYRQAPGKERELVAAITSGGSTNYADSVKGRFTISRDNAKNTVYLQMNSLKPEDTAVYYCAKVSYYPWRYDYWGQGTQVTVSS”, the “polyreactivity (PSR sort gate)” value is “low polyreactivity”.
Turning to “QGQLVESWGGLVQAGGSLRLSCAATRRTFLYYVMGWYRQAPGKETELVAAITNRGGSTYYADSVKGRFTISRDNAKNNVYVLMKSLKQEDTAVYYSNAPYGVYWSSTYYFWGQGTQVTVSS”, the “polyreactivity (PSR sort gate)” value is listed as “high polyreactivity”.
As for “QVQLVESGGGLVQAGGSLRLSCAASGRIFYGNAMGWYRQAPGKERELVAAISSGTTTNYADSVKGRFTISRDNAKNTVYLQMNSLKPEDTAVYYCAAGSYSRYLYSLYFDFDYWGQGTQVTVSS”, the “polyreactivity (PSR sort gate)” value was “low polyreactivity”.
Consider “QVQLVESGGGLLQAGGSLRLSCAASGIIFFYYSMGWYRQAPGKERELVAAISSDGSTYYADSVKGRFTSSRDNAKNTVYLQMNSLKPEDTAVDYCAAQYNHWWEYDYWGQGTQVTVSS”, for which the “polyreactivity (PSR sort gate)” value is given as “low polyreactivity”.
Regarding “QFQLVEYGGGLFQAGGSLRLSCDASGSIFPYNDLGWYRQAPGKERELVARITNGGSTNYADSVKGRFTISRDNAKNTFYLQMNSLKPEDTAGYYCNKDGTQEFAPDGHEYWGQGTQVTVSS”, the “polyreactivity (PSR sort gate)” value is “low polyreactivity”.
Take “QVQLVESGGGLVQAGGSLRLSCAASGITFLDYAMGWYRQAPGKERELVADISTSGGSTYYADSVKGRFTISRDNAKNTVYLQMNSLKPEDTAVYYCAADTFDFWWSLGSMDYWGQGTQVTVSS”: the “polyreactivity (PSR sort gate)” value is on record as “high polyreactivity”.
As for “QVQLVESGGGLVQAGCSLRLSCAASGSIFAYYTMGWYRQAAGKERELVATISSGDITNYADSVKGRFTISRDNAKNSVYLQMNSLKPEDTAVYFCAAAELTSYYRTFIHKDYDFWGQGTQVSVSS”, the “polyreactivity (PSR sort gate)” value is “low polyreactivity”.
Regarding “QVQLVESGGGLVQAGGSLRLSCAASGSTFRHYAMGWYRQAPGKERELVAVISWGGTSTYYADSVKGRFTISRDNAKNTVYLQMNSLKPEDTAVYYCNKAYFPIFKGYEMYYWGQGTQVTVSS”, the “polyreactivity (PSR sort gate)” value is on record as “low polyreactivity”.
Turning to “QVQLVESGVRLVQAGGSLRLSCAASGRTLKYNAMGWYIQAPGKERELVAAISYSGSSTYYADSVRGRFTISRDNAKNTVYLQMNSLKPEDTAVYYFNTARPTAAYDYWGQGTQVTVSS”, the “polyreactivity (PSR sort gate)” value is recorded as “low polyreactivity”.
The entry for “QVQLVESGGGLVQAGGSLRLSCAASGRIFSGYAMGWYRQAPGKERELVAAIYGGGSTNYADSVKGRFTISRDNAKNTVYLQMNSLKPEDTAVYYCATQYWHYPYWLYKYDYWGQGTQVTVSS” is “low polyreactivity”.
Consider “QDQLVESGGGLVQAGGSLSLSCAASGSTFLTNAMGWYRQAPGKERELVAAISRRGGNTYYADSVKGRFTISRDNAKNTVYLQMNSMNPEDTAVYYCNAVTPTTLGDYWGQGTQVTVSS”, for which the “polyreactivity (PSR sort gate)” value is “high polyreactivity”.
“QVQLVESGGGLVQAGGSLRLSCAASGSIFGDYAMGWYRQAPGKERELVAAITSSGGITYYADSVKGRFTISRDNAKNTVYLQMNSLKPEDTAVYYCAAYGYGSNYRYTGYYYWGQGTQVTVSS”: the “polyreactivity (PSR sort gate)” value was “low polyreactivity”.
In the case of “QVQLVESGGGLVQAGGSLRLSCAASGRTFAYNTMGWYRQAPGKERELVARINSGTSTYYADSVKGRFTISRDNAKNTVYLQMNRLKPEDTAVYYCNAYSWYGYDYWGQGTQVTVSS”, the “polyreactivity (PSR sort gate)” value is listed as “high polyreactivity”.
As for “QVQLVESGGGLVQAGGSLRLSCAASGRIFSYYAMGWYRQAPGKERELVAAISRGGTTNYADSVKGRFTISRDNAKNTVYLQMNSLKPEDTAVYYCNRDFHLIHLSSARLDYWGQGTQVTVSS”, the “polyreactivity (PSR sort gate)” value is “low polyreactivity”.
The value for “QVQLVESGGGLVQAGGSLRLSCAASGSTFRRNAMGWYRQAPGKERELVASISFSGGSTFYADSVKGRFTISRDNAKNTVYLQMNSLKPEDTAVYYCATRYYYSSYEYWGQGTQVTVSS” was “high polyreactivity”; that for “QVQLHESGGGLLQAGGTLRLSCAASGTISYAGPMCWYRQSPGKEREFVAGIGVGSNTNYADSVKGRYTIIRDNAKNTVYLQMNSLKPEDTAVYYCAVGGFAPLGRPYWGQGTQVTVSS” was “low polyreactivity”; that for “QVQLVESGGGLVKAGGSLRLSCAASGSIFYFNAMGWYRQAPGKERELVATIRSGDGRTYYADSVKGRFTISRDNAQNTVYLQMNSLKPEDTAVYYCNASRVVYRQAYVYGYDYWGKGTQVTVSS” was “low polyreactivity”.
Take “QVQLVESGGGLVQAGGSLRLSCAASGSTFEAYAMGWYRQAPGKERELVAAIRSSGSTSYADSVKGRFTISRDNAKNTVYLQMNSLKPVDTAVYYCAARVRGYPRYKRDYWGQGTQVTVSS”: the “polyreactivity (PSR sort gate)” value is listed as “high polyreactivity”.
As to “QVQLVESGAGLVQAGGSLRLSCAASGSIFVVYAMGWYRQAPWKERELVAAISWGIGSTYYADSVKGRFTISRDNAKNTVYLQMNSLKPEDTAVYYCAADTDIVLYDYWGQGTQVTVSS”, the “polyreactivity (PSR sort gate)” value is “low polyreactivity”.
The entry for “QVQHVESGGGLVQAGGSLRLSCAASGIIFIGNAMGWYRQAPGKEGALVAANTDSGGRTYYADSVKGRFTISRDNAKNSVYLQMNCLKPEDTAVYYCARDRGKNTPYDYWGQGTLVTVSS” is “low polyreactivity”.
